Changes are numbered by the printed parent chain. Values belong to the binder of their own block, whether it stands above or below them.
Legend:
[1] = target: T1, mFz: Fz domain and C-terminal flanking sequence of mouse MuSK (D307 to T494) with C-terminal Avi- and … (mouse, UniProt Q61006 307-494, limits assumed, biotinylated in vitro using the BirA enzyme); experiment: bead-binding assay, Fab format: biotinylated antigen on streptavidin beads, flow cytometry, 1:1 fit; average ± s.d., n=3
T1 construct: also called mouse Fz; not shown: Avi- and His6-tags
T1 sequence (looked up): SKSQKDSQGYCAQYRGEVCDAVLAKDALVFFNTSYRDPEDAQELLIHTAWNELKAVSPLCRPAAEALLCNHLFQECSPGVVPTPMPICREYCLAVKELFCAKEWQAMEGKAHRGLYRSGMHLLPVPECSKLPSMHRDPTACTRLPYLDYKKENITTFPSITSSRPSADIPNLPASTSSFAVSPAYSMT

[2] = target: T2, hECD: full-length extracellular region of human MuSK (E22 to T495) with C-terminal Avi- and His6-tags (human, UniProt O15146 22-495, biotinylated in vitro using the BirA enzyme); experiment: as above
T2 construct: also called human ECD; not shown: Avi- and His6-tags
T2 sequence: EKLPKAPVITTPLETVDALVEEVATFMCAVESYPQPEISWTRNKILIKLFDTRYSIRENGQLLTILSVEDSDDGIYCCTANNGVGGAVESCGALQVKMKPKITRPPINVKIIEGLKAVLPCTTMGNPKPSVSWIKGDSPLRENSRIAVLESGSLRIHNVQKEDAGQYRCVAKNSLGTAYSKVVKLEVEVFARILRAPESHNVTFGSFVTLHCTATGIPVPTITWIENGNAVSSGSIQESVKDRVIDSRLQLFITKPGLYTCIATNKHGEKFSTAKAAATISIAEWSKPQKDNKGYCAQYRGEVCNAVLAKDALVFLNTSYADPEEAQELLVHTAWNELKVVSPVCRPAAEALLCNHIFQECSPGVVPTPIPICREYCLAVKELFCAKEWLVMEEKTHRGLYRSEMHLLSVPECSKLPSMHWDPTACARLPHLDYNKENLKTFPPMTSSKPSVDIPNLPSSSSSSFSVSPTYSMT

[3] = target: T3, mECD: full-length extracellular region of mouse MuSK (E22 to T494) with C-terminal Avi- and His6-tags (mouse, UniProt Q61006 22-494, biotinylated in vitro using the BirA enzyme); experiment: as above
T3 construct: range 22-494; also called mouse ECD; not shown: Avi- and His6-tags
T3 sequence (looked up): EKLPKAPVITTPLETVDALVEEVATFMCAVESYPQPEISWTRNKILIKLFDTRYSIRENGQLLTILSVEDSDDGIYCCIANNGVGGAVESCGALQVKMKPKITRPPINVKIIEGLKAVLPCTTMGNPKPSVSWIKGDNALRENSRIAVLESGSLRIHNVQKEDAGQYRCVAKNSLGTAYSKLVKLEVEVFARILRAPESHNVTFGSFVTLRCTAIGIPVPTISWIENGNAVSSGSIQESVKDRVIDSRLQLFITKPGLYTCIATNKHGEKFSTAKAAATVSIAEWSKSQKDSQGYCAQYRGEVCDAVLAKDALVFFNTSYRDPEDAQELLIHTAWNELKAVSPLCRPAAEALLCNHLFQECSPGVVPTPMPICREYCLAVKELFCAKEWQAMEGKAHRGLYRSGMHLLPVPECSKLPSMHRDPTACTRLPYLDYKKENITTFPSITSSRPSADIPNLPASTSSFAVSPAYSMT

[4] = target: T4, hFz: Fz domain and C-terminal flanking sequence of human MuSK (K314-T495) with C-terminal Avi- and His6-tags (human, UniProt O15146 314-495, biotinylated in vitro using the BirA enzyme); experiment: as above
T4 construct: also called human Fz; not shown: Avi- and His6-tags
T4 sequence: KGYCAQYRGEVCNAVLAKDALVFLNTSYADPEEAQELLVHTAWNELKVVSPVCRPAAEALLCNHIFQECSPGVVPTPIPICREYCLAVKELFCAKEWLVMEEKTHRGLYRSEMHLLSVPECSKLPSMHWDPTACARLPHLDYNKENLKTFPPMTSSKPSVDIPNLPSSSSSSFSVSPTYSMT

cynomolgus monkey MuSK [5] = target: T5, cynomolgus monkey MuSK (cynomolgus monkey, UniProt A0A2K5USF6 24-487); experiment: Biacore, MuSK on chip, association pH 7.4, dissociation pH 5.5
Protocol: (§1) For affinity determination, a CMS chip was coated with cynomolgus monkey, rat and mouse MuSK (200RU) and 66.7 nM of antibody was applied and kinetic parameters calculated (Table 8). The following conclusions could be drawn: (1) 3B2g1m3 and 3B2g2m3 (m3 variants) show significant drop in affinity for MuSK for all species tested; (2) 3B2g1m2 and 3B2g2m2 (m2 variants) show some drop in affinity for MuSK; (3) 3B2g1m1, 3B2g2m1, 3B2g1m4, 3B2g2m4 (ml and m4 variants) show no drop in affinity for MuSK for all species tested; and (4) for all clones there is no difference between g1 and g2 variants (VL methionine versus serine in CDR3).
(§2) In order to study pH dependent binding of our antibodies to MuSK, the same Biacore was used as above, but now dissociation was done at pH 5.5 instead of pH 7.4. […] The following conclusions could be drawn for the different variants: (1) 3B2g1m3 and 3B2g2m3 (m3 variants) show significant drop in affinity for MuSK for all species tested; (2) 3B2g1m2 and 3B2g2m2 (m2 variants) show some drop in affinity for MuSK; (3) 3B2g1m1, 3B2g2m1, 3B2g1m4, 3B2g2m4 (m1 and m4 variants) show no drop in affinity for MuSK for all species tested; and (4) for all clones there is no difference between g1 and g2 variants (VL methionine versus serine in CDR3).

mouse MuSK [6] = target: T6, mouse MuSK (mouse, UniProt Q61006 22-494, limits assumed); experiment: as above
T6 construct: Coated on ELISA plates or on the Biacore chip; also called full length mouse MuSK; mouse MuSK (in house produced in HEK293 cells)
T6 sequence (looked up): T3 sequence (looked up)
Protocol: as §1, §2

rat MuSK [7] = target: T7, rat MuSK (rat, UniProt Q62838 22-494, limits assumed); experiment: as above
T7 construct: Coated on Biacore chip (200RU) or ELISA plate
T7 sequence (looked up): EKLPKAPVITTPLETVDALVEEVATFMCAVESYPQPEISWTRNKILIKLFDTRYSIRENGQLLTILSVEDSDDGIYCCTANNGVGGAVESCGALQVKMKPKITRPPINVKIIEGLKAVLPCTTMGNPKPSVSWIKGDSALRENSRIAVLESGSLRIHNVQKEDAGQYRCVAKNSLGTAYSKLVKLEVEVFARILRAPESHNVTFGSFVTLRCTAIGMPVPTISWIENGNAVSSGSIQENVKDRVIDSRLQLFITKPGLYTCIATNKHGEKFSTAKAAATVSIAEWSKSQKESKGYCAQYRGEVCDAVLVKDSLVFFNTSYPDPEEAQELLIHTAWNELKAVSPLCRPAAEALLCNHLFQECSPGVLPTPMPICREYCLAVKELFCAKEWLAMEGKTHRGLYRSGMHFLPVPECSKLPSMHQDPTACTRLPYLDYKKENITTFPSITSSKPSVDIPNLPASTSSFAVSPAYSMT
Protocol: as §1, §2

cynomolgus monkey MuSK [8] = target: T5, cynomolgus monkey MuSK; experiment: Biacore, MuSK on chip (200RU), 66.7 nM mAb, dissociation pH 7.4
Protocol: as §1

mouse MuSK [9] = target: T6, mouse MuSK; experiment: as above
Protocol: as §1

rat MuSK [10] = target: T7, rat MuSK; experiment: as above
Protocol: as §1

T5 sequence (A0A2K5USF6 entry or part of it): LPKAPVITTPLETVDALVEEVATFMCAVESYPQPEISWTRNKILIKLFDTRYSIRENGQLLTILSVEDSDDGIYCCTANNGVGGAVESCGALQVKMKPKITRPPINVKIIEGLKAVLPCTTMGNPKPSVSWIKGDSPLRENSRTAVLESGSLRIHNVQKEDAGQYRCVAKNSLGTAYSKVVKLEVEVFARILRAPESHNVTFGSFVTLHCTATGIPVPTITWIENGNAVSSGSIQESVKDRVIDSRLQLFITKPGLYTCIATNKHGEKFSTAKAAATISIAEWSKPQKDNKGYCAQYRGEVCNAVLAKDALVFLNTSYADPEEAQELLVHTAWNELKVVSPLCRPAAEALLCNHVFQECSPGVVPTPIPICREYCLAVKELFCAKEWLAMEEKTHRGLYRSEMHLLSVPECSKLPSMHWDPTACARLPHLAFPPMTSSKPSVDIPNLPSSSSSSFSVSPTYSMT

Kd [1]: 12 nM | Kd [2]: 6 nM | Kd [3]: 16.2 nM | Kd [4]: 4.5 nM
B1: X7 Fab (Fab, V domains shown)
VH: EVQLVESGGGLVQPGGSLRLSCAASGFTLYSSSIHWVRQAPGKGLEWVASISSSYSSTYYADSVKGRFTISADTSKNTAYLQMNSLRAEDTAVYYCARLAGLYHYPGYLGLDYWGQGTLVTVSS
VL: DIQMTQSPSSLSASVGDRVTITCRASQSVSSAVAWYQQKPGKAPKLLIYSASSLYSGVPSRFSGSRSGTDFTLTISSLQPEDFATYYCQQSSRSSLLTFGQGTKVEIK
notes: also called Fab Clone X7

R0 (cynomolgus monkey MuSK [5]): 151 RU | koff (cynomolgus monkey MuSK [5]): 0.00288 s⁻¹ | kon (cynomolgus monkey MuSK [5]): 850000 M⁻¹ s⁻¹ | R0 (mouse MuSK [6]): 193 RU | koff (mouse MuSK [6]): 0.00339 s⁻¹ | kon (mouse MuSK [6]): 1.18e+06 M⁻¹ s⁻¹ | R0 (rat MuSK [7]): 174 RU | koff (rat MuSK [7]): 0.00555 s⁻¹ | kon (rat MuSK [7]): 1.15e+06 M⁻¹ s⁻¹ | R0 (cynomolgus monkey MuSK [8]): 144 RU | koff (cynomolgus monkey MuSK [8]): 0.00109 s⁻¹ | kon (cynomolgus monkey MuSK [8]): 890000 M⁻¹ s⁻¹ | R0 (mouse MuSK [9]): 195 RU | koff (mouse MuSK [9]): 0.00104 s⁻¹ | kon (mouse MuSK [9]): 1.32e+06 M⁻¹ s⁻¹ | R0 (rat MuSK [10]): 160 RU | koff (rat MuSK [10]): 0.00193 s⁻¹ | kon (rat MuSK [10]): 1.4e+06 M⁻¹ s⁻¹
B2: 3B2g2m1 (antibody, human IgG1, V domains shown)
VH: EVQLLESGGGLVQPGGSLRLSCAASGFTFSDYGMSWVRQAPGKGLEWVSAIPWSGGSTYYKESVKGRFTISRDNSKNTLYLQMNSLRAEDTAVYYCAKRSGRIAFGALDAWGQGTLVTVSS
VL: QTVVTQEPSFSVSPGGTVTLTCGLSSGSVTSSNYPDWYQQTPGQAPRTLIYSTDSRHSGVPDRFSGSILGNKAALTITGAQADDESDYYCGLYSYSGSKNYVFGGGTKLTVL
notes: human IgG1-LALA backbone; produced in HEK293 cells; also called MuSK agonist antibody 3B2g2m1; MuSK-mAb 3B2g2m1

R0 (cynomolgus monkey MuSK [5]): 147 RU | koff (cynomolgus monkey MuSK [5]): 0.0029 s⁻¹ | kon (cynomolgus monkey MuSK [5]): 810000 M⁻¹ s⁻¹ | R0 (mouse MuSK [6]): 192 RU | koff (mouse MuSK [6]): 0.00339 s⁻¹ | kon (mouse MuSK [6]): 1.19e+06 M⁻¹ s⁻¹ | R0 (rat MuSK [7]): 166 RU | koff (rat MuSK [7]): 0.00595 s⁻¹ | kon (rat MuSK [7]): 1.16e+06 M⁻¹ s⁻¹ | R0 (cynomolgus monkey MuSK [8]): 143 RU | koff (cynomolgus monkey MuSK [8]): 0.00117 s⁻¹ | kon (cynomolgus monkey MuSK [8]): 840000 M⁻¹ s⁻¹ | R0 (mouse MuSK [9]): 193 RU | koff (mouse MuSK [9]): 0.0011 s⁻¹ | kon (mouse MuSK [9]): 1.25e+06 M⁻¹ s⁻¹ | R0 (rat MuSK [10]): 157 RU | koff (rat MuSK [10]): 0.00192 s⁻¹ | kon (rat MuSK [10]): 1.32e+06 M⁻¹ s⁻¹
B3: 3B2g1m1 (antibody, human IgG1, V domains shown)
VH: B2 VH
VL: B2 VL with S94M
notes: human IgG1-LALA backbone; produced in HEK293 cells

Kd [1]: 4.7 nM | Kd [2]: 1.69 nM | Kd [3]: 44 nM | Kd [4]: 1.4 nM
B4: X8 Fab (Fab, V domains shown)
VH: EVQLVESGGGLVQPGGSLRLSCAASGFTVSSSSIHWVRQAPGKGLEWVASISSSSGSTSYADSVKGRFTISADTSKNTAYLQMNSLRAEDTAVYYCARSWSYHPWYYHVGWYTGLDYWGQGTLVTVSS
VL: DIQMTQSPSSLSASVGDRVTITCRASQSVSSAVAWYQQKPGKAPKLLIYSASSLYSGVPSRFSGSRSGTDFTLTISSLQPEDFATYYCQQSSSSLITFGQGTKVEIK
notes: also called Fab Clone X8
